{"source": "patent US6458926", "target": "GAL-RXR (yeast GAL4 DBD linked to the human RXRα LBD) (yeast; human) (UniProt P04386)", "assay": "cell-based or functional assay", "data": [{"substance": "T3R LBD (SV40 TAg NLS fused upstream of human T3Rβ LBD) (from UniProt P10828 173-456)", "values": [{"measurement": "fold response to LG69", "result": 57, "unit": "fold"}]}]}
